The results in this text go back to patent US20090209006 (published 2009).

Assay [1] concerns the target ZTNF4 (BLyS/BAFF) (human). Nature of the assay: competition, 125I-ZTNF4 binding to TACI-coated plates.
The target of assay [2] is ZTNF4 (BLyS/BAFF) (human). Nature of the assay: other, solution radioligand binding with precipitation.

B1: TACI (d1-29, d120-154)-Fc5 (protein)
chain: MDAMKRGLCCVLLLCGAVFVSLSQEIHAELRRFRRAMRSCPEEQYWDPLLGTCMSCKTICNHQSQRTCAAFCRSLSCRKEQGKFYDHLLRDCISCASICGQHPKQCAYFCENKLRSPVNLPPELREPKSSDKTHTCPPCPAPEAEGAPSVFLFPPKPKDTLMISRTPEVTCVVVDVSHEDPEVKFNWYVDGVEVHNAKTKPREEQYNSTYRVVSVLTVLHQDWLNGKEYKCKVSNKALPSSIEKTISKAKGQPREPQVYTLPPSRDELTKNQVSLTCLVKGFYPSDIAVEWESNGQPENNYKTTPPVLDSDGSFFLYSKLTVDKSRWQQGNVFSCSVMHEALHNHYTQKSLSLSPGK
In the case of B1, the IC50 with ZTNF4 (BLyS/BAFF) [1] is 2.21 nM. For the same molecule, in the assay with ZTNF4 (BLyS/BAFF) [2], binding was put at a Kd of 0.092 nM.

B2: TACI (d1-29)-Fc5 (protein)
chain: MDAMKRGLCCVLLLCGAVFVSLSQEIHAELRRFRRAMRSCPEEQYWDPLLGTCMSCKTICNHQSQRTCAAFCRSLSCRKEQGKFYDHLLRDCISCASICGQHPKQCAYFCENKLRSPVNLPPELRRQRSGEVENNSDNSGRYQGLEHRGSEASPALPGLKEPKSSDKTHTCPPCPAPEAEGAPSVFLFPPKPKDTLMISRTPEVTCVVVDVSHEDPEVKFNWYVDGVEVHNAKTKPREEQYNSTYRVVSVLTVLHQDWLNGKEYKCKVSNKALPSSIEKTISKAKGQPREPQVYTLPPSRDELTKNQVSLTCLVKGFYPSDIAVEWESNGQPENNYKTTPPVLDSDGSFFLYSKLTVDKSRWQQGNVFSCSVMHEALHNHYTQKSLSLSPGK
In the assay with ZTNF4 (BLyS/BAFF) [1], B2 yielded an IC50 of 2.07 nM. In the assay with ZTNF4 (BLyS/BAFF) [2], this molecule registered a Kd of 0.134 nM.

B3: TACI (d1-29, d111-154)-Fc5 (protein)
chain: MDAMKRGLCCVLLLCGAVFVSLSQEIHAELRRFRRAMRSCPEEQYWDPLLGTCMSCKTICNHQSQRTCAAFCRSLSCRKEQGKFYDHLLRDCISCASICGQHPKQCAYFCENKLRSEPKSSDKTHTCPPCPAPEAEGAPSVFLFPPKPKDTLMISRTPEVTCVVVDVSHEDPEVKFNWYVDGVEVHNAKTKPREEQYNSTYRVVSVLTVLHQDWLNGKEYKCKVSNKALPSSIEKTISKAKGQPREPQVYTLPPSRDELTKNQVSLTCLVKGFYPSDIAVEWESNGQPENNYKTTPPVLDSDGSFFLYSKLTVDKSRWQQGNVFSCSVMHEALHNHYTQKSLSLSPGK
On to B3, for which, in the assay with ZTNF4 (BLyS/BAFF) [1], the IC50 came out at 2.31 nM. In addition, binding in the assay with ZTNF4 (BLyS/BAFF) [2] was put at a Kd of 0.115 nM.

B4: TACI (d1-29, d107-154)-Fc5 (protein)
chain: MDAMKRGLCCVLLLCGAVFVSLSQEIHAELRRFRRAMRSCPEEQYWDPLLGTCMSCKTICNHQSQRTCAAFCRSLSCRKEQGKFYDHLLRDCISCASICGQHPKQCAYFCENEPKSSDKTHTCPPCPAPEAEGAPSVFLFPPKPKDTLMISRTPEVTCVVVDVSHEDPEVKFNWYVDGVEVHNAKTKPREEQYNSTYRVVSVLTVLHQDWLNGKEYKCKVSNKALPSSIEKTISKAKGQPREPQVYTLPPSRDELTKNQVSLTCLVKGFYPSDIAVEWESNGQPENNYKTTPPVLDSDGSFFLYSKLTVDKSRWQQGNVFSCSVMHEALHNHYTQKSLSLSPGK
B4: the IC50 with ZTNF4 (BLyS/BAFF) [1] turned out to be 4.95 nM. Also, the Kd in the assay with ZTNF4 (BLyS/BAFF) [2] came out at 0.121 nM.

The term IC50 denotes the midpoint of a concentration-inhibition curve. Usually Kd stands for a measure of binding affinity in units of concentration. Low values mean a tighter complex, high ones a looser complex.
